Laboratory results from paper PMC11551957 (ACS Applied Materials & Interfaces, 2024).

Molecular target: T1, MPER-TM(654-709) polypeptide (HIV-1, UniProt P04578)
T1 construct: also called MPER-TMD polypeptide; MPER-TMD construct
Assay: flow cytometry on cells; stable HEK293T cells expressing the antigen; 10^6 cells; Fab-mVenus variants at 2 μg/mL, 30 min, RT, FACS buffer (PBS, 0.1% FBS); mVenus fluorescence read; Env cells with or without preincubation with Ig-mD1.22 (20 μg/mL, 30 min)
Conditions: one partner purified

B1: 10E8 Fab-mVenus S65C conjugated with Fus4 (Fab, V domains shown)
VH: EVQLVESGGGLVKPGGSLRLSCSASGFDFDNAWMTWVRQPPGKGLEWVGRITGPGEGWSVDYAAPVEGRFTISRLNSINFLYLEMNNLRMEDSGLYFCARTGKYYDFWSGYPPGEEYFQDWGRGTLVTVSS
VL: SYELTQETGVSVALGRTVTITCRGDSLRSHYASWYQKKPGQAPILLFYGKNNRPSGVPDRFSGCASGNRASLTISGAQAEDDAEYYCSSRDKSGSRLSVFGGGTKLTVL
Question: Does B1 bind?
Answer: Result: binds

B2: 10E8 Fab-mVenus S65C conjugated with Lin3 (Fab, V domains shown)
VH: B1 VH
VL: B1 VL
Question: Does B2 bind?
Answer: Result: binds
